From US20110191903A1, “ENGINEERING PLANT RESISTANCE TO DISEASES CAUSED BY PATHOGENS” (Pioneer Hi-Bred International, Inc., priority 2009, published 2011) come the findings set out here.

What all share (format): biochemical, Ceriporiopsis subvermispora
Substrate in series [1]: O=C(O)C(=O)O
The experiment in a line: Oxalate oxidase kinetics, coupled horse radish peroxidase assay, ALT3 (1-8). From the text: (§1) The E. coli expression system was based on the published protocol of Escutia et al. Escutia et al., Cloning and sequencing of two Ceriporiopsis subvermispora bicupin oxalate oxidase allelic isoforms: implications for the reaction specificity of oxalate oxidases and decarboxylases. (2005). The coding sequence for the mature OXOX enzyme was inserted in E. coli expression vector pET32 (Invitrogen) to include a 6× histidine tag at the C-terminus. The resulting expression plasmid was transformed into E. coli strain BL21Star pLysS (Invitrogen).
(§2) E. coli cultures were grown at 37° C. At optical density 0.4, arabinose was added to a concentration or 0.4%. After another hour of growth at 37° C., MnCl2 was added to 5 mM and IPTG to 1 mM. Cultures were then grown at 25° C. for 16 hours. Cells were harvested by centrifugation at 4000 rpm for 10 min. The supernatant was discarded and cell pellets were kept at −80° C. for at least one hour. Pellets were resuspended in total 40 ml of lysis buffer with 50 mM phosphate buffer pH7, 2 mg/ml protease inhibitor (sigma P-8465), 100 mM KCL, 1/1000 lysozyme, 1/2000 endonuclease, and incubated at 37° C. with shaking for one hour, followed by sonication. Cellular debris was removed by centrifugation and the clarified supernatant was poured into a new tube. Nickel resin (Qiagen) was added. After a short period of incubation, the slurry was poured onto a column and washed with buffer. Purified OXOX protein was eluted from the resin in 50 mM succinate pH 5, 100 mM KCl. The E. coli expression procedure was scalable allowing large scale protein production for kinetic analysis as well as small scale production for high throughput screening of libraries.
(§3) Oxalate oxidase enzymatic activity was determined in a coupled reaction. Oxalate oxidase converts oxalic acid to carbon dioxide and hydrogen peroxide. In the presence of horse radish peroxidase, hydrogen peroxide reacts with 3-methyl-2-benzothiazolinone hydrazone (MBTH) and N,N-dimethylaniline (DMA) to form indamine dye, which can be detected spectrophotmetrically or colorimetrically as described by Laker, M. F., Hoffman, A. F., and Meeuse, J. D. (1980) Clinical Chemistry 26, 827-830. The coupled reaction was used for characterization of oxalate oxidase kinetic properties as well as in a screening procedure to identify oxalate oxidase variants with improved enzymatic properties.
(§4) DNA shuffling was performed as described elsewhere herein. A polymerase chain reaction product corresponding to the OXOX-C coding sequence was fragmented by limited nuclease treatment. Synthetic oligonucleotides encoding sequence diversity from oxalate decarboxylase sequences found in public databases were added. A polymerase chain reaction procedure was performed on the mixture to yield a library of full length OXOX-C coding sequences with additional diversity incorporated. The resulting library was inserted in expression vector pET32, E. coli cells were transformed and protein was expressed, as described in Example 2. A tiered screening strategy was devised based on the OXOX protein expression and enzymatic activity determination procedures described in Examples 2 and 3, respectively. A high throughput screening process based on colorimetric determination of OXOX activity was utilized to identify individual E. coli strains harboring active OXOX variants. These OXOX-active strains were reassayed using quantitative spectrophotometric determination of OXOX activity. […] Three rounds of this iterative screening and selection procedure were completed, and OXOX variants with up to 8-fold improved activity were identified
(§5) More modest improvements in Km and Kcat were observed under lower pH conditions. Coupled reaction was preformed as described in Example 3. Enzyme kinetic parameters were determined by standard methods as described in Segel (1976) Biochemical calculations, 2nd Edition. John Wiley & Sons, London, New York, Sydney, Toronto.

Substrate in series [2]: O=C(O)C(=O)O
Description: Oxalate oxidase kinetics, coupled horse radish peroxidase assay, ALT6 (3-21).
Excerpt: as §1, §2, §3, §4, §5

Substrate in series [3]: O=C(O)C(=O)O
The experiment in a line: Oxalate oxidase kinetics, coupled horse radish peroxidase assay, ALT7 (3-25).
Excerpt: as §1, §2, §3, §4, §5

Substrate in series [4]: O=C(O)C(=O)O
The experiment in a line: Oxalate oxidase kinetics, coupled horse radish peroxidase assay, FG10.
Excerpt: as §1, §2, §3, §4, §5

Substrate in series [5]: O=C(O)C(=O)O
Description: Oxalate oxidase kinetics, coupled horse radish peroxidase assay, FG23.
Excerpt: as §1, §2, §3, §4, §5

For orientation: Km means the substrate concentration at which the rate is half of its maximum. A word on the kcat: it is the maximal rate divided by the concentration of active sites.

Positions count from the first letter of the chain named. Numbers in names are those of the source.

B1: Ceriporiopsis subvermispora oxalate oxidase OXOX-C variant ALT3 (1-8), I54M/I99V/W118Y/F259Y/I278V/F339Y/F396Y relative to OXOX-C-ALT1 (SEQ ID NO: 35), SEQ ID … (protein)
chain: RPTENGPQIVIANNAGTYLPVLRGSGTKSSSAADATQTVPFASDDPNPRLWDMDTKNLIKVTPERGQLGAKILGPDNLPIDLQNADTLAPPTTDSGSVPNPKWPFALSHNTLYSGGYVRIQNDEVMPIAKAMAGVNMRLEAGAIRELHWHNTPEWAYILKGTTQITAVDQNGRNYLANVGPGDLWYFPEGMPHSLQGTDANNEGSEFLLIFPDGTFDSSNQFMITDWLAHTPKDVIAKNFGVDISEFDRLPSHDLYIYPGVAPPLDAKAPEDPQGTVPLPYSFEFSKVKPTQYAGGTVKIADTRTFPIAKTISVAEVTVEPGAMRELHWHPTEDEWTYFIEGQARVTIFAGQSNAQTYDYQGGDIAYIPTAWGHYVENSGNTQLRFLEIFNSPLYEDVSLAQWIANTPPAIVKATLQLSDEVINTLNKQKAFVVG
Turning to B1, the Michaelis-Menten constant (Km) in series [1] (other: pH 3.8, pH 3.8) was determined as 310 µM; in series [1] (other: pH 4.8, pH 4.8), 1700 µM; in series [1] (other: pH 5.8, pH 5.8) it was 8380 µM. The turnover number (kcat) in series [1] (other: pH 3.8, pH 3.8) is 4.69 s⁻¹; in series [1] (other: pH 4.8, pH 4.8), 3.21 s⁻¹; in series [1] (other: pH 5.8, pH 5.8) it was 1.36 s⁻¹.

B2: Ceriporiopsis subvermispora oxalate oxidase OXOX-C variant ALT6 (3-21), L23P/I60E/T63Q/I99V/L177M/L196I/F259Y/I278V/F339Y/F387Y/F396Y relative to OXOX-C-ALT1 … (protein)
chain: B1 chain with L22P, M53I, I59E, T62Q, Y117W, L176M, L195I, F386Y
With B2, the Km in series [2] (other: pH 3.8, pH 3.8) worked out at 120 µM; in series [2] (other: pH 4.8, pH 4.8) it was 550 µM; in series [2] (other: pH 5.8, pH 5.8), 1460 µM. For the same protein, the turnover number (kcat) in series [2] (other: pH 3.8, pH 3.8) worked out at 2.79 s⁻¹; in series [2] (other: pH 4.8, pH 4.8) it was 2.61 s⁻¹; in series [2] (other: pH 5.8, pH 5.8), 1.72 s⁻¹.

B3: Ceriporiopsis subvermispora oxalate oxidase OXOX-C variant ALT7 (3-25), L23P/I54M/I60E/I99V/W118Y/P154A/I159V/L177M/D218N/F259Y/I278V/F339Y/Y359F/G363A/F396Y … (protein)
chain: B1 chain with L22P, I59E, P153A, I158V, L176M, D217N, Y358F, G362A
Take B3: the Km in series [3] (other: pH 3.8, pH 3.8) was determined as 450 µM; in series [3] (other: pH 4.8, pH 4.8), 2170 µM; in series [3] (other: pH 5.8, pH 5.8), 7840 µM. In addition, the kcat in series [3] (other: pH 3.8, pH 3.8) stood at 12.01 s⁻¹; in series [3] (other: pH 4.8, pH 4.8) it was 8.28 s⁻¹; in series [3] (other: pH 5.8, pH 5.8), 5.85 s⁻¹.

B4: Ceriporiopsis subvermispora oxalate oxidase OXOX-C variant FG10 (3-FG10), D53N/I60E/E65Q/K72E/S115T/Q171E/R174K/M192V/I278V/Y282F/Y359F/V399I/G436A plus S437, … (protein)
chain: RPTENGPQIVIANNAGTYLPVLRGSGTKSSSAADATQTVPFASDDPNPRLWNIDTKNLEKVTPQRGQLGAEILGPDNLPIDLQNADTLAPPTTDSGSIPNPKWPFALSHNTLYTGGWVRIQNDEVMPIAKAMAGVNMRLEAGAIRELHWHNTPEWAYILKGTTQITAVDENGKNYLANVGPGDLWYFPEGVPHSLQGTDANNEGSEFLLIFPDGTFDSSNQFMITDWLAHTPKDVIAKNFGVDISEFDRLPSHDLYIFPGVAPPLDAKAPEDPQGTVPLPFSFEFSKVKPTQYAGGTVKIADTRTFPIAKTISVAEVTVEPGAMRELHWHPTEDEWTFFIEGQARVTIFAGQSNAQTFDYQGGDIAYIPTAWGHYVENSGNTQLRFLEIFNSPLFEDISLAQWIANTPPAIVKATLQLSDEVINTLNKQKAFVVASD
notes: C-terminal 6xHis, pET32, E. coli, nickel purified
For the protein B4, the Km in series [4] (other: pH 3.8, pH 3.8) amounted to 400 µM; in series [4] (other: pH 4.8, pH 4.8), 1830 µM; in series [4] (other: pH 5.8, pH 5.8), 5900 µM. The kcat in series [4] (other: pH 3.8, pH 3.8) is 8.01 s⁻¹; in series [4] (other: pH 4.8, pH 4.8), 6.00 s⁻¹; in series [4] (other: pH 5.8, pH 5.8) it was 2.65 s⁻¹.

B5: Ceriporiopsis subvermispora oxalate oxidase OXOX-C variant FG23 (3-FG23), … (protein)
chain: RPTENGPQIVIANNAGTYLPVLRGSGTKSSSAADATQTVPFASDDPNPRLWNIDTQDLSVVAPERGPLGAKILGPDNLPIDLQNADTLAPPTTDSGSVPNPKWPFALSHNTLYSGGWVRIQNNEVLPIAKAMAGVNMRLEAGAIRELHWHNTPEWAYILKGTTQITAVDQNGRNYLANVSPGDLWYFPEGIPHSLQGTDANNEGSEFLLIFPDGTFDASNQFMITDWLAHTPKDVIAKNFGVDISEFDRLPSHDLYIFPGVAPPLDAKAPEDPQGTVPLPYSFEFSKVKPTQYAGGTVKIADTRTFPIAKTISVAEVTVEPGAMRELHWHPTEDEWTFFIEGQARVTIFAGQSNAQTYDYQGGDIAYIPTAYGHYVENSGNTQLRFLEIFNSPLFEDVSLAQWIANTPPAIVKATLQLSDEVIDSLNKQKASVVG
On to B5, for which the Km in series [5] (other: pH 3.8, pH 3.8) worked out at 380 µM; in series [5] (other: pH 4.8, pH 4.8), 1210 µM; in series [5] (other: pH 5.8, pH 5.8), 5250 µM. Moreover, the kcat was found to be 7.06 s⁻¹ in series [5] (other: pH 3.8, pH 3.8); 4.62 s⁻¹ in series [5] (other: pH 4.8, pH 4.8); 2.61 s⁻¹ in series [5] (other: pH 5.8, pH 5.8).
